This note sets out measurements from patent publication US20240150422A1 (ONKO INNATE, published 2024).

Substitutions are numbered along the chain they refer to. Names and notes keep the numbering of the source.

First the molecules themselves.
T1: wild-type IL-12 heterodimeric Fc fusion protein (IgG1Fc(knob)-IL12p35 / IgG1Fc(hole)-IL12p40) (human, UniProt P29459 23-219; P29460 23-328)
T1 construct: also called wild-type IL-12 Fc; IL-12 Fc wt; not shown: human IgG1 Fc (knob) with artificial disulfide and N297G; human IgG1 Fc (hole) with artificial disulfide and N297G
T1 sequence 1: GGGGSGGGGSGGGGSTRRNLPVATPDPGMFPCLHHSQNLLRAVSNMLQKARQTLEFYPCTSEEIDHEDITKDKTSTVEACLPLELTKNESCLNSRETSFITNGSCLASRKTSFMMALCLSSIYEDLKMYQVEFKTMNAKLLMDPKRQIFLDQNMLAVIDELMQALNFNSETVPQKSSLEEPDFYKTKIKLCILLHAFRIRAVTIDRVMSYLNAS
T1 sequence 2: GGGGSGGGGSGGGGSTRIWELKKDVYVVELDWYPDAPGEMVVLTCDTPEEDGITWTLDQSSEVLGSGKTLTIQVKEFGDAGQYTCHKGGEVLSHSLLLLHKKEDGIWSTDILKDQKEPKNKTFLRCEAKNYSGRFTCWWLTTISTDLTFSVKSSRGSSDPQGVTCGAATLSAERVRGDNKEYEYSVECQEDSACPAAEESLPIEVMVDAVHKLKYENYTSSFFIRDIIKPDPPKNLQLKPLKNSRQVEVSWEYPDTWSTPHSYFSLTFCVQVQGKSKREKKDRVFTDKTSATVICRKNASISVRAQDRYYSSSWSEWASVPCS

B1: IL-12 Fc K170A mutant (Fc-C-terminal fusion format of Example 1) (Fc fusion, not shown: a dimerising Fc or GST)
chain 1: T1 sequence 1 with K187A
chain 2: T1 sequence 2
B2: IL-12 Fc single mutant Y40A (Fc-C-terminal fusion format of Example 1) (Fc fusion, not shown: a dimerising Fc or GST)
chain 1: T1 sequence 1 with Y57A
chain 2: T1 sequence 2
B3: IL-12 Fc single mutant P127A (Fc-C-terminal fusion format of Example 1) (Fc fusion)
chain 1: T1 sequence 1 with P144A
chain 2: T1 sequence 2
notes: not shown: human IgG1 Fc (knob) with artificial disulfide and N297G; human IgG1 Fc (hole) with artificial disulfide and N297G
B4: IL-12 Fc single mutant K168A (Fc-C-terminal fusion format of Example 1) (Fc fusion)
chain 1: T1 sequence 1 with K185A
chain 2: T1 sequence 2
notes: as for B3
B5: IL-12 Fc single mutant D126A (Fc-C-terminal fusion format of Example 1) (Fc fusion)
chain 1: T1 sequence 1 with D143A
chain 2: T1 sequence 2
notes: as for B3
B6: truncated form of the IL-12Rβ2 extracellular region (domains 1-3) (receptor)
chain: KIDACKRGDVTVKPSHVILLGSTVNITCSLKPRQGCFHYSRRNKLILYKFDRRINFHHGHSLNSQVTGLPLGTTLFVCKLACINSDEIQICGAEIFVGVAPEQPQNLSCIQKGEQGTVACTWERGRDTHLYTEYTLQLSGPKNLTWQKQCKDIYCDYLDFGINLTPESPESNFTAKVTAVNSLGSSSSLPSTFTFLDIVRPLPPWDIRIKFQKASVSRCTLYWRDEGLVLLNRLRYRPSNSRLWNMVNVTKAKGRHDLLDLKPFTEYEFQISSKLHLYKGSWSDWSESLRAQTPEE
notes: also called interleukin 12 receptor beta 2

Assay [1] addresses IL-12 receptor on HEK-Blue IL-12 cells (InvivoGen) (human, UniProt P42701 24-662; Q99665 24-862). The experiment in a line: cell-based or functional assay.
Assay [2] deals with B6. The experiment in a line: SPR (Biacore T100, 20 C); IL-12 Fc captured on a protein A chip (190 RU), IL-12Rbeta2 (domains 1-3) as analyte; 1:1 Langmuir model.
Method: (§1) SPR measurements were recorded on a Biacore T100 at 20° C. in a buffer comprising 20 mM sodium phosphate pH 7.4, 150 mM NaCl and 0.05% Tween20. […] Following a 300 second dissociation phase, the remaining bound IL-12Rβ2 was washed off the chip using 50 mM Glycine pH 2.5, followed by 50 mM NaOH (30 second injections for each). Kinetic parameters were calculated using BIAevaluation software using a 1:1 Langmuir model, following subtraction of binding to a reference flow cell containing an isotype control antibody.
Assay [3] deals with B6. The experiment in a line: SPR (Biacore T100, 20 C); IL-12 Fc captured on a protein A chip (230 RU), IL-12Rbeta2 (domains 1-3) as analyte; 1:1 Langmuir model.
Method: as §1
Assay [4] concerns the target B6. Nature of the assay: SPR (Biacore T100, 20 C); IL-12 Fc captured on a protein A chip (220 RU), IL-12Rbeta2 (domains 1-3) as analyte; 1:1 Langmuir model.
Method: as §1
Assay [5] addresses T1, wild-type IL-12 heterodimeric Fc fusion …. Nature of the assay: SPR as in Example 3; immobilized IL-12 Fc, IL-12Rbeta2 injected at 0.7-500 nM.
Method: as §1
The target is the same in assay [6]. Nature of the assay: SPR (Biacore T100, 20 °C), IL-12 Fc captured on protein A chip, IL-12Rβ2 domains 1-3 as analyte, 1:1 Langmuir model.
Method: as §1

Consider B1, for which, in assay [1], the “HEK-Blue IL-12 reporter assay, fold reduction in EC50 value” was ~16 fold (vs wild-type).
On to B2, for which, in assay [1], the “HEK-Blue IL-12 reporter assay, fold reduction in EC50 value” is ~17 fold (vs IL-12 Fc w.t.) and the “HEK-Blue IL-12 reporter assay, fold reduction in potency” value is ~29 fold (vs IL-12 Fc w.t.).
Regarding B3, in assay [1], the “HEK-Blue IL-12 reporter assay, fold reduction in potency” value is ~2 fold (vs IL-12 Fc w.t.). In assay [2], this molecule had a Kd of 44.3 nM.
Turning to B4, in assay [3], the dissociation constant Kd was 130 nM.
Regarding B5, the Kd in assay [4] was found to be 42.9 nM.
As for B6, the Kd in assay [5] was determined as 53.2 nM; in assay [6], 13.1 nM.
